From paper PMC2532728 (Nucleic Acids Research, 2008)

Molecular target: the molecule itself
Assay: SEC

B1: recombinant ZmWHY1 (full-length mature ZmWHY1, lacking the transit peptide) (natural protein)
chain: ASSRKAAAVPACPVASPRHSDYFDPRAPPPPRGDGGYGRPPNGAQDGRVFTSYSIYKGKAALSFDPRPPLFVPLDSGAYKVAKEGFVLLQFAPAVATRQYDWTRKQVFSLSVWEIGTLLTLGPTDSCEFFHDPFKGRSEEGKVRKVLKIEPTPDGNGRFFNLSVQNRLINVDESIYIPITKGEFAVIVSTFNYIIPHLMGWSTFVSSIKPEESRPYSRPQSTSEYEWRR
- stoichiometry N: 4
